Measured values as given in the nanobody polyreactivity screen of Harvey et al. (2022).

Assay: yeast display, Sf9 membrane polyspecificity reagent, FACS + sequencing; frameworks hold sequencing errors
How it was run: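 Polyreactivity labels are assigned by the sorting gate from which each nanobody was recovered. The gates were low and high (top ~1%), set on anti-HA fluorescence for expression and streptavidin fluorescence for reagent binding. Before sorting, galactose-induced (36–48 hours) yeast display cells were stained for 1 hour at 4 °C with 10% biotinylated, detergent-solubilized Sf9 membrane reagent.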

Question: For “QVQLVESGGGLVQAGGSLRLSCAASGLIFYIYAMGRYREAPGKERELVAAISSSGGSTFYADSVKGRFTISRDNAKNTVYLQMNSLKPEDTAVYYCAAYYGGGYGFHRDYWGQGTQVTVSS”, which “polyreactivity (PSR sort gate)” value is on record?
Answer: high polyreactivity

Question: With “QVQLVESGGGLVQAGGSLRLSCPASGSTFPYYAMGWYRQAPGKERELVARINWGGSSTYYADSVKGRFTISRDNAKNTVYLQMNSLKPEDTAVYYCARYSSRWSLMDYWGQGTQVTVSS” as the sequence, how does the “polyreactivity (PSR sort gate)” value read?
Answer: high polyreactivity

Question: Which “polyreactivity (PSR sort gate)” value does the source give for “QVQLVESGGGLVQAGGSLRLSCAASGSIFWRYSMGWYRQAPGKERELVAAINYSTTRTYYADSVKGRFTISRDNAKNTVYLQMNSLKPEDTAVYYCAADSRVDEGEYWGQGTQVTVSS” here?
Answer: high polyreactivity

Question: Which “polyreactivity (PSR sort gate)” value does the source give for “QVQLVESGGGLVQAGGSLRLSCAASGSTFGIYARGGYRQAPGNERELVAAISWRGGRTYYADSVKGRFTISRDNAKNTVYLQMNSLKPEDTAVYYCAADLAVYYIFLALEFNYWGQGTQVTVSS” here?
Answer: low polyreactivity

Question: Which “polyreactivity (PSR sort gate)” value does the source give for “QVQLVESGGGLVQAGGSLRLSCAASGSIFTPYAMGWYRQAPGKERELVATISWSGGRTYYADSVKGRFTISRDNAKNTVYLQMNSLKPEDTAVYYCNADVLKYKFDYWGQGTQVTVSS” here?
Answer: high polyreactivity

Question: Which “polyreactivity (PSR sort gate)” value does the source give for “QVQLVESGGGLVQAGGSLRLSCAASGRTFDLNDMGWYRQAPGKERELVAGINSGGSTKYADSVKGRFTISRDNAKNTVSLQMNSLKPEDTAVYYCATRWPGGSRWPFYLTYDYWGQGTQVTVSS” here?
Answer: low polyreactivity

Question: With “RVQLVESGGGLVQAGGSLRLSCAASGRIFKYYAMGWYRPAPGTERELVASITIGSTTYADSVKGRFTISRDNAMNTVYLHMNSLKPEDTAVYYCNRVYRQRLGRDYWGQGTQVTVSS” as the sequence, how does the “polyreactivity (PSR sort gate)” value read?
Answer: high polyreactivity

Question: Which “polyreactivity (PSR sort gate)” value does the source give for “QVQLVESGGGLVQAGGSLRLSCAASGFTYRVNAMGWYRQATGKERELVAAITVSDGRTYYADSVKGRFTISRDNAKNTVYLQMNSLKPEDTAVYYCAADYKGAFTTDWSSEYEYWGQGTQVTVSS” here?
Answer: low polyreactivity

Question: Which “polyreactivity (PSR sort gate)” value does the source give for “QVQLVESVGGLVQAGGSLRLSCAASGLIFVRYAMGWYRQAPGKERELVATITWSGGTTYADSVKGRFTISRDNAKNTVYLQMNSLKPEDTAVYYCAVEWPAWTDSDYPVGGHAFGYWGQGTQVTVSS” here?
Answer: low polyreactivity

Question: For “QVQLVESGGGLVQAGGSLRLSCAASGGTFVQYVMGWYRPAPGKERELVAAISASGGRTYYADSVKGRFTISRDNAKNSVYLQMNSLKPEDTAVDYCAAERKGSVTYEYDYWGQGTQVSVSS”, which “polyreactivity (PSR sort gate)” value is on record?
Answer: high polyreactivity

Question: Which “polyreactivity (PSR sort gate)” value does the source give for “QVQLVESGGGLVHAGGSLRLSCAASGRTFWSYAMGWYRQAPGKERELVAAIRTSDGITYYADSVKGRFTISRDNAKNTVYLQMNSLKPEDTAVYYCAAENWYKYDYWGQGTQVTVSS” here?
Answer: low polyreactivity

Question: With “QVQLVESGGGLGQAGGSLRLSCAASGSIFYRYAMGWYRKAPGKERELVAAITRRGARTYYADSVKGRFTISRDNAKNTVYLQLNSLKPEDTAVYYCAATYYYWTGWRYVRGDYWGQGTQVTVSS” as the sequence, how does the “polyreactivity (PSR sort gate)” value read?
Answer: high polyreactivity

Question: With “QVQLVESGGGLVQAGGSLLLICAASGSIFYFYTMGWYRQAPGKERELVASITYSGGRTYYADSVKWSFTMSRDNAKHTVYLQMNSLKPEDPPVDYCAVRGYRRYWGQGTQVTVSS” as the sequence, how does the “polyreactivity (PSR sort gate)” value read?
Answer: high polyreactivity

Question: With “QVQLVESGGGLVQAGGILRLSCAPSGRIISWNPIGLYRQAPGQERELVADITYSGGSTYYADSVKGRFTISRDNAKNTVYLQMNSLKPEDTAVYDCNADPRWYHFEYGYWGQGTQVTVSS” as the sequence, how does the “polyreactivity (PSR sort gate)” value read?
Answer: high polyreactivity

Question: Which “polyreactivity (PSR sort gate)” value does the source give for “QVQLVESGGGLVQAGGSLRLSCAASGRIFYPYAMGWYRQAPGKERELVAVISYSGGGTYYADSVKWRFTISRDNAKNTVYLQMNRMKPEDTAVYYCAAYADYSYYVYDYWGQGTQVTVSS” here?
Answer: high polyreactivity

Question: Which “polyreactivity (PSR sort gate)” value does the source give for “QVQLVESGGGLVQAGGSLRLSCAASGFTFPYNGMGWYRQAPGKERELVASISWSGASTYYADSVKGRFTISRDNAKNTVYLQMNSLKPEDTAVYYCAADPGYYSWGSSQDDYWGQGTQVTVSS” here?
Answer: low polyreactivity

Question: For “QVQLVESGGGLVHAGGSLRIICAASGRIFYIYAMGWYRQAPGKERELVAAITKSGGSTTHYADSVKGRFTISRDNAKNTVYLQMNSLKPEDTEVYYCAVDARYSRSKYGYWGHGTQVTVSS”, which “polyreactivity (PSR sort gate)” value is on record?
Answer: high polyreactivity

Question: Which “polyreactivity (PSR sort gate)” value does the source give for “QVQLVESGGGLVQAGGSLRLSCAASASIFLEYAMGWYRQAPGKERELVAGITISGGSTYYADSVKGRFTISRDNAKNTVYLQMNSLKPEDSAVYYCAKVAPRSSSSLEYYYWGQGTQVTVSS” here?
Answer: low polyreactivity

Question: Which “polyreactivity (PSR sort gate)” value does the source give for “QVHLVESGGGLVQAGGSLRLSCAASGSTSRTYAMGWNRPQPGKERELVAAISSSGGRTTYADSVKGRFTFSRDNAKNTVSLQMNSLKPEDTAVYYCNARTYSYRGYNYWGQGTQVTVSS” here?
Answer: high polyreactivity

Question: With “QVQLVESGGGLVQAGGSLRLSCAASGSIFYWNAMGWYRQAPGKERELVAGISQRGGRTSYADSVKGRFTISRDNAKNTVYLQMNSLKPEDTAVYYCAATSVYPRSGSSRYDYWGQGTQVTVSS” as the sequence, how does the “polyreactivity (PSR sort gate)” value read?
Answer: low polyreactivity

Question: For “QVQLVESGGGLVQAGGSLRLSCAASGLTFNYYAMGWYRQAPGKERELVAAISSSTGSTYYADSVKGRFTISRDNAKYTVYLQMNSLKPEDTAVYYCAAVRTKAYVSRTSQSGYWGQGTQVTVSS”, which “polyreactivity (PSR sort gate)” value is on record?
Answer: high polyreactivity

Question: With “QVQLVESGGGLVQAGGSLRLSCASYGSIFAYYTMGWYRQAPGKARELVATISSRGGSKNYADSVKGRFTISRDNAKNPVYLQMNSLRPEDTAVYYCYAYHYQSGITVSEYDYWGQGTQVTVSS” as the sequence, how does the “polyreactivity (PSR sort gate)” value read?
Answer: high polyreactivity

Question: With “QVQLVESVGGLVQAGGSLRLSCAASGFIFSQYAMGWDRKAPGKERELVAAISKSGGRTYYADSVKGRFTFSRDNAKNTVYLQMNSLKPEDTAVYYCAAVSYSSYRYDYWGQGTQVTVSS” as the sequence, how does the “polyreactivity (PSR sort gate)” value read?
Answer: high polyreactivity

Question: Which “polyreactivity (PSR sort gate)” value does the source give for “QVQLVESGGGLVQAGGSLRLSCAASGRILPYYAMGWYRQAPGKERELVAAISYSGGSTYYADSVKGRFTLSRDNGKNTFYLQMNSLKPEDTAVYYCNARPVKASYVGYNYWGQGTQVTVSS” here?
Answer: high polyreactivity

Question: Which “polyreactivity (PSR sort gate)” value does the source give for “QVQLVESGGGLVQAGGSLRLICADYGITFRVNAMGWYRQAPGKERELVASISRSGGSTYYADSVKGRFTISRDNAKNTVYLQMNSLKPEDTAVYYCAAAQKVLFYGRWFDYWGQCTQVTVSS” here?
Answer: low polyreactivity

Question: With “QVQLVESGGGLVQAGGSLRLSCAASGGIFVFYAMGWYRQAPGKERELVAAITYRGGSTSYADSVKRRFTISRDNAKNTVYLQMNSLKPEDTAVYYCNARRRTWYGFYYWGQGTQVTVSS” as the sequence, how does the “polyreactivity (PSR sort gate)” value read?
Answer: high polyreactivity

Question: For “QVQLVESGGGLVQAGGSLRLSCAASGFNFRTNAMGWYRQAPGKERELVAAISRSGNTYYADSVKGRFTISRDNAKNTVYLQMNSLKPEDTAVYYCAAQSVRWYSSFKYYYWRQGTQVTVSS”, which “polyreactivity (PSR sort gate)” value is on record?
Answer: high polyreactivity

Question: Which “polyreactivity (PSR sort gate)” value does the source give for “QVQLVESGGGLVQAGGSLRLSCAASGRIFAFNVMGWYRQAPGKEREMVAAISTRDGSTYYADSVKGRFTISRDNAKNTVYLQMNSLIPEDTAVYYCNAVVRYYDWGYWDYDYWGQGTQVTVSS” here?
Answer: low polyreactivity

Question: With “QVQLVESGGGLVQAGGSLRLSCAASGRIFDQYTMGWYRQAPGKERELVAAIRWSDGSTYYADSVKGRFTISRDNAKNTVYLQMNSLKPEDTAVYYCAADTRTSYYNDDYDYWGQGTQVTVSS” as the sequence, how does the “polyreactivity (PSR sort gate)” value read?
Answer: low polyreactivity

Question: For “QVHLVESGGGLVQAGGSLRLSCAASGSTFYYYAMGWYRQAPGKERELVAVITSGGSTNYADSVKGRFTISRDYAKNSVYLQMNSLKPEDTAVYYCNVGPSTYYQYDYWGQGTQVTVSS”, which “polyreactivity (PSR sort gate)” value is on record?
Answer: high polyreactivity

Question: Which “polyreactivity (PSR sort gate)” value does the source give for “QVQLVESGGGLVQAGGSLRLSCAASGFTFSNNVMGWYRQAPGKERELVADITDSGGDTYYADSVKGRFTISRDNAKNTVYLQMNSLKPEDTAVYYCAARPQHFDLDLAYSGFDYWGQGTQVTVSS” here?
Answer: high polyreactivity
